Measurements: article PMC3554864

Target: NS3 helicase (NS3, with protease domain) (Hepatitis C virus (genotype ), UniProt Q9WMX2 1027-1657)
Test: KMnO4 footprinting

NS3 helicase (NS3, with protease domain), sequence (Q9WMX2 1027-1657): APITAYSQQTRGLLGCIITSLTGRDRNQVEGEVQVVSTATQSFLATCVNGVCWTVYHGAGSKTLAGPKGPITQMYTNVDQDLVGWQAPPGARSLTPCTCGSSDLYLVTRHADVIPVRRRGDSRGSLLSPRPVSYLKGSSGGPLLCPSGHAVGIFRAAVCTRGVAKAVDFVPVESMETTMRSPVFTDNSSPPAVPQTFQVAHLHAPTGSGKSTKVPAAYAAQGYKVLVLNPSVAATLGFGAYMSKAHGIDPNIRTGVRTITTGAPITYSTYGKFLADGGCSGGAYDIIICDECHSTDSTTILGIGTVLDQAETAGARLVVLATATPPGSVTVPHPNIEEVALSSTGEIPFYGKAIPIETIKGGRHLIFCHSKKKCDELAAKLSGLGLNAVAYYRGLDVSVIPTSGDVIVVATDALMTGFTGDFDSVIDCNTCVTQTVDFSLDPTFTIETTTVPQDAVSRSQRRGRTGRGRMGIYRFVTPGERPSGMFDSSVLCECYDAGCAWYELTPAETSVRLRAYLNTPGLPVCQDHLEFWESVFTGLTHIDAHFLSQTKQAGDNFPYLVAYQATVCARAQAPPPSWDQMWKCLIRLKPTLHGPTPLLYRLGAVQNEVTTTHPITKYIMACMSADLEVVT

B1: 30mer blunt duplex (dsDNA)
DNA 1: GCTCTCTGTCTGTCTGTGTCTCTGTCTCTG
DNA 2: CAGAGACAGAGACACAGACAGACAGAGAGC
modifications: biotin (position not stated for this duplex)
binding result: binds
